This note sets out measurements from the Immune Epitope Database (IEDB).

The IC50 is the midpoint of a concentration-inhibition curve. A higher IC50 goes with a need for much substance. Usually Kd stands for the constant that tells how readily two partners part at equilibrium.

Where only a bound is given, the exact number is not on record here.

In test [1] the target is HLA-A*03:01. Nature of the test: IEDB peptide-MHC binding, purified MHC/competitive/fluorescence; ≥ and ≤ were set here for values at or beyond the usual limits of such assays.
The target in a further test is HLA-A*11:01. The test is described as above. Conditions: source organism: Variola virus.
Test [2] concerns the target HLA-B*08:01. Described as above.
Another test addresses HLA-A*23:01. Nature of the test: IEDB peptide-MHC binding, purified MHC/direct/fluorescence; filed as Kd, often an IC50 or EC50 that approximates it; ≥ and ≤ were set here for values at or beyond the usual limits of such assays. The conditions noted are these: source organism: Mycobacterium tuberculosis str. Haarlem.
A further test deals with HLA-A*24:03. The test is described as above. The conditions noted are these: source organism: Mycobacterium tuberculosis str. Haarlem.
The target of test [3] is HLA-B*40:01. Nature of the test: IEDB peptide-MHC binding, purified MHC/competitive/fluorescence; filed as Kd, often an IC50 or EC50 that approximates it; ≥ and ≤ were set here for values at or beyond the usual limits of such assays.
The target of test [4] is HLA-A*02:01. Nature of the test: IEDB peptide-MHC binding, purified MHC/competitive/fluorescence; ≥ and ≤ were set here for values at or beyond the usual limits of such assays.
Another test has as its target HLA-B*15:01. The test is described as above. Conditions: source organism: Vaccinia virus WR.
In a further test the target is HLA-C*12:03. Description: IEDB peptide-MHC binding, purified MHC/direct/fluorescence; filed as Kd, often an IC50 or EC50 that approximates it; ≥ and ≤ were set here for values at or beyond the usual limits of such assays.
The target of test [5] is HLA-B*08:01. Description: IEDB peptide-MHC binding, purified MHC/competitive/fluorescence; filed as Kd, often an IC50 or EC50 that approximates it; ≥ and ≤ were set here for values at or beyond the usual limits of such assays. The conditions noted are these: source organism: Escherichia coli.
Another test deals with HLA-B*39:01. Described as above. Conditions: source organism: Escherichia coli.
A further test has as its target HLA-C*15:02. Nature of the test: IEDB peptide-MHC binding, purified MHC/direct/fluorescence; filed as Kd, often an IC50 or EC50 that approximates it; ≥ and ≤ were set here for values at or beyond the usual limits of such assays.
A further test concerns the target HLA-A*01:01. Nature of the test: IEDB peptide-MHC binding, purified MHC/competitive/radioactivity; filed as Kd, often an IC50 or EC50 that approximates it; ≥ and ≤ were set here for values at or beyond the usual limits of such assays. Conditions: source organism: Dengue virus 4 Philippines/H241/1956.
In the next test the target is HLA-A*24:02. Nature of the test: IEDB peptide-MHC binding, purified MHC/competitive/fluorescence; ≥ and ≤ were set here for values at or beyond the usual limits of such assays. The conditions noted are these: source organism: Zaire ebolavirus.
The next test deals with HLA-B*57:01. Nature of the test: IEDB peptide-MHC binding, purified MHC/direct/fluorescence; filed as Kd, often an IC50 or EC50 that approximates it; ≥ and ≤ were set here for values at or beyond the usual limits of such assays.
The next test deals with HLA-B*58:01. The test is described as above.
The next test has as its target HLA-C*06:02. The description is as above.
Test [6] has as its target HLA-A*02:01. Nature of the test: IEDB peptide-MHC binding, purified MHC/competitive/radioactivity; filed as Kd, often an IC50 or EC50 that approximates it; ≥ and ≤ were set here for values at or beyond the usual limits of such assays. Conditions: source organism: Vaccinia virus WR.
The next test has as its target HLA-A*02:02. The description is as above. Conditions: source organism: Vaccinia virus WR.
In another test the target is HLA-A*02:03. Described as above. The conditions noted are these: source organism: Vaccinia virus WR.
The next test deals with HLA-A*02:06. The description is as above. The conditions noted are these: source organism: Vaccinia virus WR.
For another test, the target named is HLA-C*05:01. Description: IEDB peptide-MHC binding, purified MHC/direct/fluorescence; filed as Kd, often an IC50 or EC50 that approximates it; ≥ and ≤ were set here for values at or beyond the usual limits of such assays. Conditions: source organism: human gammaherpesvirus 4.
Test [7] concerns the target HLA-A*03:01. The description is as above. The conditions noted are these: source organism: West Nile virus.
The target in a further test is HLA-A*31:01. The description is as above. The conditions noted are these: source organism: West Nile virus.
For the next test, the target named is HLA-B*07:02. Described as above. The conditions noted are these: source organism: West Nile virus.
The next test deals with HLA-B*15:09. The description is as above. The conditions noted are these: source organism: West Nile virus strain PTRoxo.
For a further test, the target named is HLA-B*18:01. The description is as above. Conditions: source organism: West Nile virus.
Another test addresses HLA-B*27:05. The description is as above. The conditions noted are these: source organism: West Nile virus.
Test [8] addresses HLA-B*40:01. The test is described as above. Conditions: source organism: West Nile virus.
The target of a further test is HLA-B*44:02. The description is as above. The conditions noted are these: source organism: West Nile virus.
A further test deals with HLA-B*46:01. Described as above. The conditions noted are these: source organism: West Nile virus.
A further test addresses HLA-B*48:01. Described as above. Conditions: source organism: West Nile virus.
Test [9] has as its target HLA-A*02:01. Nature of the test: IEDB peptide-MHC binding, purified MHC/competitive/fluorescence; filed as Kd, often an IC50 or EC50 that approximates it; ≥ and ≤ were set here for values at or beyond the usual limits of such assays. The conditions noted are these: source organism: West Nile virus.
Where [10] appears, read: source organism: Sudan ebolavirus.
Setting [11] is: source organism: Zaire ebolavirus.
The mark [12] stands for this setting: source organism: Vaccinia virus WR.
Setting [13] is: source organism: Giardia lamblia ATCC 50803.
The mark [14] stands for this setting: source organism: West Nile virus.

For the sequence AVARKHHTK, the figures for the concentration for half-maximal inhibition (IC50) with HLA-A*03:01 [1] (source organism: Variola virus), with HLA-A*11:01 and with HLA-B*08:01 [2] (source organism: Variola virus) were 1.46 µM, 471 nM and no less than 436 µM, respectively.
For the sequence AYLFTPLFK, the equilibrium dissociation constant (Kd) with HLA-A*23:01 was determined as 356 nM; with HLA-A*24:03, 185 nM.
In turn, EEAKLFFQV displayed a dissociation constant Kd with HLA-B*40:01 [3] (source organism: Yersinia pestis Antiqua) of 6.4 nM.
With FLRATTELR, the half-inhibitory concentration (IC50) with HLA-A*02:01 [4] (setting [10]) was 56.2 µM; in the test with HLA-A*03:01 [1] (setting [10]), 26.1 µM; with HLA-B*08:01 [2] (setting [11]), no less than 87.8 µM.
With FMHEQGYSH, the results for the IC50 with HLA-A*02:01 [4] (setting [12]), with HLA-B*08:01 [2] (setting [12]) and with HLA-B*15:01 were 9.72 µM, no less than 301 µM and 14.8 µM, respectively.
For the sequence FQRAIMNAM, the dissociation constant (Kd) with HLA-C*12:03 (source organism: Escherichia coli MS 119-7) is 99 nM; with HLA-B*08:01 [5] it was 154 nM; with HLA-B*39:01, 37.7 nM.
With FTTNIWMKF, the figures for the dissociation constant Kd in the test with HLA-C*15:02 (source organism: dengue virus type 4) and with HLA-A*01:01 were no less than 20000 nM and 5.16 µM, respectively.
With GLLIVKTVL, the IC50 in the test with HLA-A*02:01 [4] (setting [11]) was 0.294 µM; with HLA-A*24:02, no less than 105 µM; with HLA-B*08:01 [2] (setting [11]), no less than 135 µM.
In the test with HLA-B*40:01 [3] (source organism: Bacillus anthracis str. A0488), HEYQGKAVL showed a Kd of 5.1 nM.
IEHALAHQL came in with a Kd in the test with HLA-B*40:01 [3] (source organism: Salmonella enterica subsp. enterica serovar Typhi) of 7.7 nM.
As for KTWGQYWQV, the Kd with HLA-C*15:02 (source organism: Homo sapiens) was 49 nM.
Consider LEPRVFGWM, for which the Kd with HLA-B*40:01 [3] (source organism: Escherichia coli F11) was 71.3 nM.
LETCHRNAF: the equilibrium dissociation constant (Kd) with HLA-B*40:01 [3] (source organism: Escherichia coli 536) was 1030 nM.
Turning to NELGVPFHL, in the test with HLA-B*40:01 [3] (source organism: Influenza A virus (A/nt/60/1968(H3N2))), the Kd was found to be 2.1 nM.
RTHEESLRL: the equilibrium dissociation constant (Kd) is 2080 nM with HLA-B*57:01 (setting [13]), 1480 nM with HLA-B*58:01 (setting [13]) and 50 nM with HLA-C*15:02 (setting [13]).
As for VLPFDIKYI, the Kd with HLA-C*06:02 (source organism: Vaccinia virus L-IPV) amounted to 3390 nM; in the test with HLA-A*02:01 [6], 15 nM; with HLA-A*02:02 it was 135 nM; with HLA-A*02:03, 9.68 nM; in the test with HLA-A*02:06, 506 nM.
Consider VTDEGTSSF, for which the Kd with HLA-C*05:01 is no more than 1 nM; in the test with HLA-C*06:02 (source organism: human gammaherpesvirus 4), 332 nM.
In the case of YTMDGEYRL, in the test with HLA-A*02:01 [4] (source organism: West Nile virus NY-99), the 50% inhibitory concentration (IC50) worked out at 0.291 µM. Besides, the Kd in the test with HLA-A*03:01 [7], in the test with HLA-A*31:01, with HLA-B*07:02, with HLA-B*15:09, with HLA-B*18:01 and in the test with HLA-B*27:05 was no less than 20 µM in each case. The equilibrium dissociation constant (Kd) is no less than 20 µM with HLA-B*40:01 [8]; no less than 20 µM in the test with HLA-B*44:02; no less than 20 µM with HLA-B*46:01; no less than 20 µM in the test with HLA-B*48:01; no less than 20000 nM with HLA-B*57:01 (setting [14]); no less than 20000 nM with HLA-B*58:01 (setting [14]). Besides, the Kd with HLA-C*12:03 (setting [14]) was 347 nM; with HLA-C*15:02 (setting [14]) it was 85 nM; in the test with HLA-A*02:01 [9], 1.37 nM.
